Here are results for nine molecules from article PMC9599700, “Biochemical and Structural Characterization of Chi-Class Glutathione Transferases: A Snapshot on the Glutathione Transferase Encoded by sll0067 Gene in the Cyanobacterium Synechocystis sp. Strain PCC 6803” (Biomolecules, 2022).

Series [1] deals with T1, SynGSTC1 (Sll0067) (Synechocystis sp. PCC 6803, UniProt Q55139).
T1 construct: gene gst; Ni-NTA and size exclusion; about 180 residues; two-fold dimer in crystal
T1 sequence (Q55139 1-184): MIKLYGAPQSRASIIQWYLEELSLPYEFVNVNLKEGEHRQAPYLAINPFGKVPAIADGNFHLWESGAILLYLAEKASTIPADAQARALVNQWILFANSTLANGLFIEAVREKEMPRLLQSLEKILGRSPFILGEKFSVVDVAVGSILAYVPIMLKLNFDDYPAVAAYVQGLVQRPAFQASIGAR
As to the kind of experiment: GSH-conjugation assay, spectrophotometric […] nm, Michaelis-Menten fit. The format is biochemical. To be noted: fixed saturating GSH; 100 mM phosphate pH 6.5; 25 °C.

The target of series [2] is T1, SynGSTC1 (Sll0067). Described as above. The format is biochemical. To be noted: fixed saturating GSH; 30 mM Tris-HCl pH 8.0, 1 mM EDTA; 25 °C.
In series [3] the target is T2, SynGSTC1 (Sll0067) (Synechocystis sp. PCC 6803, UniProt Q55139, S10C).
T2 construct: gene gst; Ni-NTA and size exclusion; about 180 residues; two-fold dimer in crystal
T2 sequence (Q55139 1-184 S10C): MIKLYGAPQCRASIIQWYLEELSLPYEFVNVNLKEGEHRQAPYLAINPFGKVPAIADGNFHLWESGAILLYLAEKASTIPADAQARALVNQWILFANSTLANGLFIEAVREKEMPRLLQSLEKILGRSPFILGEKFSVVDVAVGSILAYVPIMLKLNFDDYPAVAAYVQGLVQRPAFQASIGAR
As to the kind of experiment: NADPH/glutathione reductase-coupled thiol-transferase assay, […] nm. It counts as biochemical. To be noted: fixed saturating GSH; 200 µM NADPH; 30 mM Tris-HCl pH 8.0; 25 °C; read-out: HED.

In series [4] the target is glutathione transferase chi1 from Synechocystis sp. PCC 6803 (SynGSTC1), wild-type (Synechocystis sp. PCC 6803). Nature of the series: crystal structure; co-crystallised with 10 mM glutathione and 1 mM TCEP, microbatch under oil at 4 °C; space group P4(3)2(1)2, two polypeptide chains in the asymmetric unit.
Substrate in series [5]: CCCC(=O)Oc1ccc([N+](=O)[O-])cc1
As to the kind of experiment: purified protein. The format is biochemical, Synechocystis sp. PCC 6803. The note with it: fixed saturating GSH, 30 mM Tris-HCl pH 8.0, 1 mM EDTA, 25 °C.

Substrate in series [6]: S=C=NCCc1ccccc1
Nature of the series: purified protein. The format is biochemical, Synechocystis sp. PCC 6803. To be noted: fixed saturating GSH, 100 mM phosphate pH 6.5, 25 °C.

Substrate in series [7]: CC(C)(OO)c1ccccc1
As to the kind of experiment: purified protein. To be noted: fixed GSH, 200 µM NADPH, 30 mM Tris-HCl pH 8.0, 25 °C.

On to `S=C=NCc1ccccc1` [benzyl-isothiocyanate], for which, at SynGSTC1 (Sll0067) [1], the Km is 82 ± 10 µM.
On to `O=[N+]([O-])c1ccc(Cl)c([N+](=O)[O-])c1` [1-chloro-2,4-dinitrobenzene], for which, at SynGSTC1 (Sll0067) [2], the Km was found to be 3790 ± 772 µM.
For the molecule `OCCSSCCO` [2-hydroxyethyl disulfide], the Km at SynGSTC1 (Sll0067) [3] turned out to be 3.3 ± 0.4 µM.
As for “glutathione transferase chi1 from Synechocystis sp. PCC 6803 (SynGSTC1), wild-type (enzyme)”, in series [4], the stoichiometry N came to 2.

B1: SynGSTC1 (Sll0067) (Synechocystis sp. PCC 6803 substr. Kazusa) (protein)
chain: MIKLYGAPQSRASIIQWYLEELSLPYEFVNVNLKEGEHRQAPYLAINPFGKVPAIADGNFHLWESGAILLYLAEKASTIPADAQARALVNQWILFANSTLANGLFIEAVREKEMPRLLQSLEKILGRSPFILGEKFSVVDVAVGSILAYVPIMLKLNFDDYPAVAAYVQGLVQRPAFQASIGAR
notes: Ni-NTA and size exclusion; about 180 residues; two-fold dimer in crystal
On to B1, for which, in the series “purified protein [5]”, the Km stood at 162.5 ± 18.3 µM and the turnover number (kcat) stood at 0.48 ± 0.2 s⁻¹. In “purified protein [6]”, the Km amounted to 33.8 ± 2.5 µM, the catalytic constant (kcat) was 12.6 ± 0.2 s⁻¹ and the specificity constant (kcat/Km) came to 373000 ± 6000 M⁻¹ s⁻¹. Also, in the series “purified protein [7]”, the Km was determined as 1508.0 ± 191.0 µM and the catalytic constant (kcat) was found to be 0.91 ± 0.06 s⁻¹.

B2: SynGSTC1 (Sll0067) (Synechocystis sp. PCC 6803 substr. Kazusa; S10A) (protein)
chain: MIKLYGAPQARASIIQWYLEELSLPYEFVNVNLKEGEHRQAPYLAINPFGKVPAIADGNFHLWESGAILLYLAEKASTIPADAQARALVNQWILFANSTLANGLFIEAVREKEMPRLLQSLEKILGRSPFILGEKFSVVDVAVGSILAYVPIMLKLNFDDYPAVAAYVQGLVQRPAFQASIGAR
notes: as for B1
B2: in “purified protein [6]”, the Km is recorded as 89.7 ± 6.4 µM, the kcat came to 2.6 ± 0.05 s⁻¹ and the kcat/Km stood at 28900 ± 600 M⁻¹ s⁻¹.

B3: SynGSTC1 (Sll0067) (Synechocystis sp. PCC 6803 substr. Kazusa; S10T) (protein)
chain: MIKLYGAPQTRASIIQWYLEELSLPYEFVNVNLKEGEHRQAPYLAINPFGKVPAIADGNFHLWESGAILLYLAEKASTIPADAQARALVNQWILFANSTLANGLFIEAVREKEMPRLLQSLEKILGRSPFILGEKFSVVDVAVGSILAYVPIMLKLNFDDYPAVAAYVQGLVQRPAFQASIGAR
notes: as for B1
Consider B3, for which, in the series “purified protein [6]”, the Km was 33.6 ± 2.6 µM, the turnover number (kcat) turned out to be 7.2 ± 0.1 s⁻¹ and the kcat/Km is 214000 ± 4000 M⁻¹ s⁻¹.

B4: SynGSTC1 (Sll0067) (Synechocystis sp. PCC 6803 substr. Kazusa; S10C) (protein)
chain: MIKLYGAPQCRASIIQWYLEELSLPYEFVNVNLKEGEHRQAPYLAINPFGKVPAIADGNFHLWESGAILLYLAEKASTIPADAQARALVNQWILFANSTLANGLFIEAVREKEMPRLLQSLEKILGRSPFILGEKFSVVDVAVGSILAYVPIMLKLNFDDYPAVAAYVQGLVQRPAFQASIGAR
notes: as for B1
Turning to B4, in the series “purified protein [6]”, the Km is listed as 33.0 ± 3.0 µM, the catalytic constant (kcat) was 1.19 ± 0.02 s⁻¹ and the kcat/Km was 36000 ± 600 M⁻¹ s⁻¹.

B5: SynGSTC1 (Sll0067) (Synechocystis sp. PCC 6803 substr. Kazusa; R11A) (protein)
chain: MIKLYGAPQSAASIIQWYLEELSLPYEFVNVNLKEGEHRQAPYLAINPFGKVPAIADGNFHLWESGAILLYLAEKASTIPADAQARALVNQWILFANSTLANGLFIEAVREKEMPRLLQSLEKILGRSPFILGEKFSVVDVAVGSILAYVPIMLKLNFDDYPAVAAYVQGLVQRPAFQASIGAR
notes: as for B1
For B5, in the series “purified protein [6]”, the Km is given as 108.4 ± 6.0 µM, the catalytic constant (kcat) came to 0.17 ± 0.003 s⁻¹ and the catalytic efficiency (kcat/Km) came out at 1530 ± 20 M⁻¹ s⁻¹.
